From IntAct's records for PubMed 31515488

B1: Tuftelin-interacting protein 11 (Homo sapiens), Q9UBB9 (parent)
chain: MSLSHLYRDGEGRIDDDDDERENFEITDWDLQNEFNPNRQRHWQTKEEATYGVWAERDSDDERPSFGGKRARDYSAPVNFISAGLKKGAAEEAELEDSDDEEKPVKQDDFPKDFGPRKLKTGGNFKPSQKGFAGGTKSFMDFGSWERHTKGIGQKLLQKMGYVPGRGLGKNAQGIINPIEAKQRKGKGAVGAYGSERTTQSMQDFPVVDSEEEAEEEFQKELSQWRKDPSGSKKKPKYSYKTVEELKAKGRISKKLTAPQKELSQVKVIDMTGREQKVYYSYSQISHKHNVPDDGLPLQSQQLPQSGKEAKAPGFALPELEHNLQLLIDLTEQEIIQNDRQLQYERDMVVNLFHELEKMTEVLDHEERVISNLSKVLEMVEECERRMQPDCSNPLTLDECARIFETLQDKYYEEYRMSDRVDLAVAIVYPLMKEYFKEWDPLKDCTYGTEIISKWKSLLENDQLLSHGGQDLSADAFHRLIWEVWMPFVRNIVTQWQPRNCDPMVDFLDSWVHIIPVWILDNILDQLIFPKLQKEVENWNPLTDTVPIHSWIHPWLPLMQARLEPLYSPIRSKLSSALQKWHPSDSSAKLILQPWKDVFTPGSWEAFMVKNIVPKLGMCLGELVINPHQQHMDAFYWVIDWEGMISVSSLVGLLEKHFFPKWLQVLCSWLSNSPNYEEITKWYLGWKSMFSDQVLAHPSVKDKFNEALDIMNRAVSSNVGAYMQPGARENIAYLTHTERRKDFQYEAMQERREAENMAQRGIGVAASSVPMNFKDLIETKAEEHNIVFMPVIGKRHEGKQLYTFGRIVIYIDRGVVFVQGEKTWVPTSLQSLIDMAK
partner: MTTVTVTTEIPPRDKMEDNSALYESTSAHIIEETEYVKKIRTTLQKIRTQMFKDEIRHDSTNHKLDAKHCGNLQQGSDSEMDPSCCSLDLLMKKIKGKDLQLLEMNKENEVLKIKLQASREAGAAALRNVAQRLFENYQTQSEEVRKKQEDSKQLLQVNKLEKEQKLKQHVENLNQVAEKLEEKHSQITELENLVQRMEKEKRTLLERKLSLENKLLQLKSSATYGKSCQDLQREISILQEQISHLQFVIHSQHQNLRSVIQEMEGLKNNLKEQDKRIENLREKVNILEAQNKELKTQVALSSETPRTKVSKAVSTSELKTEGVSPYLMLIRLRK
B2: Isoform 1 of 1-aminocyclopropane-1-carboxylate synthase-like protein 1 (Homo sapiens), Q96QU6-1 (parent)
chain: MFTLPQKDFRAPTTCLGPTCMQDLGSSHGEDLEGECSRKLDQKLPELRGVGDPAMISSDTSYLSSRGRMIKWFWDSAEEGYRTYHMDEYDEDKNPSGIINLGTSENKLCFDLLSWRLSQRDMQRVEPSLLQYADWRGHLFLREEVAKFLSFYCKSPVPLRPENVVVLNGGASLFSALATVLCEAGEAFLIPTPYYGAITQHVCLYGNIRLAYVYLDSEVTGLDTRPFQLTVEKLEMALREAHSEGVKVKGLILISPQNPLGDVYSPEELQEYLVFAKRHRLHVIVDEVYMLSVFEKSVGYRSVLSLERLPDPQRTHVMWATSKDFGMSGLRFGTLYTENQDVATAVASLCRYHGLSGLVQYQMAQLLRDRDWINQVYLPENHARLKAAHTYVSEELRALGIPFLSRGAGFFIWVDLRKYLPKGTFEEEMLLWRRFLDNKVLLSFGKAFECKEPGWFRFVFSDQVHRLCLGMQRVQQVLAGKSQVAEDPRPSQSQEPSDQRR
partner: B2 chain
B3: SH2 domain-containing protein 4A (Homo sapiens), Q9H788 (parent)
chain: MLKQILSEMYIDPDLLAELSEEQKQILFFKMREEQIRRWKEREAAMERKESLPVKPRPKKENGKSVHWKLGADKEVWVWVMGEHHLDKPYDVLCNEIIAERARLKAEQEAEEPRKTHSEEFTNSLKTKSQYHDLQAPDNQQTKDIWKKVAEKEELEQGSRPAPTLEEEKIRSLSSSSRNIQQMLADSINRMKAYAFHQKKESMKKKQDEEINQIEEERTKQICKSWKEDSEWQASLRKSKAADEKRRSLAKQAREDYKRLSLGAQKGRGGERLQSPLRVPQKPERPPLPPKPQFLNSGAYPQKPLRNQGVVRTLSSSAQEDIIRWFKEEQLPLRAGYQKTSDTIAPWFHGILTLKKANELLLSTGMPGSFLIRVSERIKGYALSYLSEDGCKHFLIDASADAYSFLGVDQLQHATLADLVEYHKEEPITSLGKELLLYPCGQQDQLPDYLELFE
partner: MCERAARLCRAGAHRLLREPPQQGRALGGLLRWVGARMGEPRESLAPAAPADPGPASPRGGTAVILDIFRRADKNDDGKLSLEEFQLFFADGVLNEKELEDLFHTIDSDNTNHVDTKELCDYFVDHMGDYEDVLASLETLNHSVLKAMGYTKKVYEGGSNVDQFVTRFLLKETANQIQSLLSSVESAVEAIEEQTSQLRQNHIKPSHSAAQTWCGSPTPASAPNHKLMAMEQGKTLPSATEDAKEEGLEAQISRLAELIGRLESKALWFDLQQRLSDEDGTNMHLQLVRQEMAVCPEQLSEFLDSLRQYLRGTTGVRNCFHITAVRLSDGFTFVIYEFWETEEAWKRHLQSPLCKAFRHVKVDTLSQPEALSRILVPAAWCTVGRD
B4: Protein DDI1 homolog 1 (Homo sapiens), Q8WTU0 (parent)
chain: MLITVYCVRRDLSEVTFSLQVSPDFELRNFKVLCEAESRVPVEEIQIIHMERLLIEDHCSLGSYGLKDGDIVVLLQKDNVGPRAPGRAPNQPRVDFSGIAVPGTSSSRPQHPGQQQQRTPAAQRSQGLASGEKVAGLQGLGSPALIRSMLLSNPHDLSLLKERNPPLAEALLSGSLETFSQVLMEQQREKALREQERLRLYTADPLDREAQAKIEEEIRQQNIEENMNIAIEEAPESFGQVTMLYINCKVNGHPLKAFVDSGAQMTIMSQACAERCNIMRLVDRRWAGVAKGVGTQRIIGRVHLAQIQIEGDFLQCSFSILEDQPMDMLLGLDMLRRHQCSIDLKKNVLVIGTTGTQTYFLPEGELPLCSRMVSGQDESSDKEITHSVMDSGRKEH
partner: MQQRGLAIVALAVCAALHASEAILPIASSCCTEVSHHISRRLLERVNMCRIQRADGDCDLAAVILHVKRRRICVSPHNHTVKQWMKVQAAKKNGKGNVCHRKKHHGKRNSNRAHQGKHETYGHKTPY

Variants of: B1
Conditions: with ccd68_human CCDC68, Q9H2F9

Variant | effect of a mutation on the interaction
R8Q | with no effect
S688L | with no effect

Variants of: B2
Conditions: with 1a1l1_human ACCS

Variant | effect of a mutation on the interaction
S393L | disrupting interaction strength

Variants of: B3
Conditions: with neca2_human NECAB2, Q7Z6G3

Variant | effect of a mutation on the interaction
E216G | with no effect
G263A | with no effect
K303R | with no effect

Variants of: B4
Conditions: with ccl28_human CCL28, Q9NRJ3

Variant | effect of a mutation on the interaction
D323N | with no effect
S63A | with no effect
G136S | with no effect
R208G | disrupting interaction strength
R87C | with no effect
